Here are results for 8 proteins from paper doi:10.1101/2023.12.20.572361.

Data set [1] can be described thus: EDL eccentric contraction protocol. To be noted: glycan lost; control: WT mice.
Data set [2] can be described thus: EDL CSA from mass and fibre length. To be noted: glycan lost; control: WT mice.
Data set [3] in a line: EDL isometric tetanic and specific force in vitro. To be noted: glycan lost; control: WT mice.
A short description of data set [4]: homozygous birth rate from heterozygous crosses. To be noted: glycan lost; control: expected Mendelian ratio.
Data set [5] can be described thus: H&E and immunofluorescence of skeletal muscle. To be noted: glycan lost; control: WT mice.
A short description of data set [6]: forelimb grip strength test. To be noted: glycan lost; control: WT mice.
A short description of data set [7]: forelimb grip strength, AAV rescue of DAG1 KO. To be noted: glycan lost; control: AAV WT DAG1.
For data set [8] the following is noted: glycan lost; control: WT mice.

B1: dystroglycan (mDag1): T315A/T317A (protein)
parent chain: MSVDNWLLHPLWGQTFLLLLSVAVAQAHWPSEPSEAVRDWKNQLEASMHSVLSDFQEAVPTVVGIPDGTAVVGRSFRVSIPTDLIASSGEIIKVSAAGKEALPSWLHWDPHSHILEGLPLDTDKGVHYISVSAARLGANGSHVPQTSSVFSIEVYPEDHNEPQSVRAASSDPGEVVPSACAADEPVTVLTVILDADLTKMTPKQRIDLLNRMQSFSEVELHNMKLVPVVNNRLFDMSAFMAGPGNAKKVVENGALLSWKLGCSLNQNSVPDIRGVETPAREGAMSAQLGYPVVGWHIANKKPTLPKRLRRQIHATPTPVTAIGPPTTAIQEPPSRIVPTPTSPAIAPPTETMAPPVRDPVPGKPTVTIRTRGAIIQTPTLGPIQPTRVSEAGTTVPGQIRPTLTIPGYVEPTAVITPPTTTTKKPRVSTPKPATPSTDSSTTTTRRPTKKPRTPRPVPRVTTKAPITRLETASPPTRIRTTTSGVPRGGEPNQRPELKNHIDRVDAWVGTYFEVKIPSDTFYDNEDTTTDKLKLTLKLREQQLVGEKSWVQFNSNSQLMYGLPDSSHVGKHEYFMHATDKGGLSAVDAFEIHVHKRPQGDKAPARFKARLAGDPAPVVNDIHKKIALVKKLAFAFGDRNCSSITLQNITRGSIVVEWTNNTLPLEPCPKEQIIGLSRRIADENGKPRPAFSNALEPDFKALSIAVTGSGSCRHLQFIPVAPPSPGSSAAPATEVPDRDPEKSSEDDVYLHTVIPAVVVAAILLIAGIIAMICYRKKRKGKLTLEDQATFIKKGVPIIFADELDDSKPPPSSSMPLILQEEKAPLPPPEYPNQSMPETTPLNQDTVGEYTPLRDEDPNAPPYQPPPPFTAPMEGKGSRPKNMTPYRSPPPYVPP
In the case of B1, the “other: susceptibility to contraction-induced injury” value (“other: susceptibility” for short) in data set [1] is listed as “no change”. In data set [2], the “other: muscle cross-sectional area” value was “changes”. Besides, the “other: muscle contractile force” value in data set [3] is “no change”. In addition, the other: embryonic viability, other: homozygous birth rate in data set [4] is 10%. Further, the “other: skeletal muscle histopathology” value in data set [5] is reported as “no change”.

B2: dystroglycan (mDag1): 4X mut. (Pax7-Cre or AAV-CMV-Cre) (protein)
parent chain: B1 parent chain
As for B2, the “other: susceptibility” value in data set [1] is listed as “increases”. For the same protein, in data set [6], the “other: grip strength” value is recorded as “decreases”. For the same protein, the “other: muscle contractile force” value in data set [3] was “decreases”.

B3: dystroglycan (mDag1): 4X mut. (protein)
parent chain: B1 parent chain
In the case of B3, the “other: embryonic viability, other: homozygous birth rate” value in data set [4] is “abolishes”.

B4: dystroglycan (mDag1): AAV T315A/T317A DAG1 (protein)
parent chain: B1 parent chain
B4: in data set [7], the “other: rescue of grip strength” value is given as “no change”.

B5: dystroglycan (mDag1): 4X mut. (floxed WT allele removed by Pax7-Cre or AAV-CMV-Cre) (protein)
parent chain: B1 parent chain
Take B5: the “other: skeletal muscle histopathology” value in data set [5] was “increases”.

B6: dystroglycan (mDag1): AAV 4X mutant DG (protein)
parent chain: B1 parent chain
Regarding B6, in data set [7], the “other: rescue of grip strength” value is given as “abolishes”.

B7: dystroglycan (mDag1): Pax7-Cre 4X mutant (protein)
parent chain: B1 parent chain
As for B7, the “other: neuromuscular junction integrity” value in data set [8] is “decreases”.

B8: dystroglycan (mDag1): T377A/T379A (protein)
parent chain: B1 parent chain
Take B8: in data set [1], the “other: susceptibility” value was “no change”. The “other: muscle cross-sectional area” value in data set [2] is “no change”. For the same protein, the “other: muscle contractile force” value in data set [3] is reported as “no change”. In data set [4], the other: embryonic viability, other: homozygous birth rate was 22%. Besides, the “other: skeletal muscle histopathology” value in data set [5] was “no change”.
